Data from US12037595B2, “Rust resistance gene” (Commonwealth Scientific and Industrial Research Organisation, priority 2013, dated 2024).

T1: Wheat Lr67 (susceptible) protein, Lr67(sus), SUT sugar transporter, SEQ ID NO:4 (Triticum aestivum, UniProt W5ELX6)
T1 construct: D-genome copy) in pRS416 with ADH1 promoter, expressed in S. cerevisiae EBY.VW4000 (hexose transport deficient)
T1 sequence (W5ELX6 1-514): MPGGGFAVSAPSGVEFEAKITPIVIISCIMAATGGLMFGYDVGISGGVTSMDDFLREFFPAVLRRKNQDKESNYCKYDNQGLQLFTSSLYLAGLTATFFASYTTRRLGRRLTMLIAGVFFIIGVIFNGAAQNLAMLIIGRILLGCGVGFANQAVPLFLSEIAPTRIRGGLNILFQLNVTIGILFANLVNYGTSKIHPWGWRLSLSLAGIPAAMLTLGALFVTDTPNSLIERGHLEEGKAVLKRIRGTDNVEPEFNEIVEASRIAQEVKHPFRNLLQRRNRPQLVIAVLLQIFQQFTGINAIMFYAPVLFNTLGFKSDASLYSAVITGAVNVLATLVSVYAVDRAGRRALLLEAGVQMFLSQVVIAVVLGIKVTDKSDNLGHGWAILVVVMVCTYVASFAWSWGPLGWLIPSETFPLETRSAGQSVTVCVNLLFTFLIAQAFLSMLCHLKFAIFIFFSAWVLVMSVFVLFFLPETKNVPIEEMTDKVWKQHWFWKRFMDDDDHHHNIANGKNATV


Key:
[1] = target: T1, Wheat Lr67 (susceptible) protein, Lr67(sus), SUT sugar transporter, SEQ ID NO:4; experiment: Concentration-dependent uptake of [14C] glucose in yeast expressing Lr67(sus); assay type: cell-based; details: [14C] glucose uptake; Lr67(sus) expressed in hexose transport deficient Saccharomyces cerevisiae EBY.VW4000; Lineweaver-Burk linear regression
Description: (§1) The following experiments were completed using the protein coding regions for the Lr67 polypeptides (resistant and susceptible alleles) cloned into the yeast expression vector pRS416. This vector contained the constitutive ADH1 promoter and CYC1 terminator for expression of the inserted coding regions. The yeast strain employed was a hexose transport deficient variant of Saccharomyces cerevisiae named EBY.VW4000. Uptake was determined using radio labelled [^14C] glucose with incorporation radio-assayed by liquid scintillation counting.
(§2) The Lineweaver-Burk equation was used to convert data for linear regression analysis.

[2] = substrate: OC[C@H]1OC(O)[C@H](O)[C@@H](O)[C@@H]1O; experiment: cells, lysate or membranes; details: other: [14C] glucose uptake; Lr67(sus) expressed in hexose transport deficient Saccharomyces cerevisiae EBY.VW4000; Lineweaver-Burk linear regression
[3] = system: hexose transport deficient variant of Saccharomyces cerevisiae named EBY.VW4000; experiment: Glucose uptake by yeast cells expressing Lr67 polypeptides, radio labelled [14C] glucose; assay type: cell-based; details: 100 μM [14C] glucose for 10 minutes, tested at 2 minute intervals, vs empty vector, FIG. 11
Description: as §1, with “EBY.VW4000.” for “EBY.VW4000. Uptake was determined using radio labelled [^14C] glucose with incorporation radio-assayed by liquid scintillation counting.”
as §2

| Molecule | Vmax [1] | Km [2] | Glucose uptake over time [3] |
| --- | --- | --- | --- |
| OC[C@H]1OC(O)[C@H](O)[C@@H](O)[C@@H]1O (stereo partly shown) [glucose] | 3.02 nmol min^−1 g FW^−1 |  |  |
| Wheat Lr67 (susceptible) protein, Lr67(sus), SUT sugar transporter, SEQ ID NO:4 (Triticum aestivum) (protein) MPGGGFAVSAPSGVEFEAKITPIVIISCIMAATGGLMFGYDVGISGGVTSMDDFLREFFPAVLRRKNQDKESNYCKYDNQGLQLFTSSLYLAGLTATFFASYTTRRLGRRLTMLIAGVFFIIGVIFNGAAQNLAMLIIGRILLGCGVGFANQAVPLFLSEIAPTRIRGGLNILFQLNVTIGILFANLVNYGTSKIHPWGWRLSLSLAGIPAAMLTLGALFVTDTPNSLIERGHLEEGKAVLKRIRGTDNVEPEFNEIVEASRIAQEVKHPFRNLLQRRNRPQLVIAVLLQIFQQFTGINAIMFYAPVLFNTLGFKSDASLYSAVITGAVNVLATLVSVYAVDRAGRRALLLEAGVQMFLSQVVIAVVLGIKVTDKSDNLGHGWAILVVVMVCTYVASFAWSWGPLGWLIPSETFPLETRSAGQSVTVCVNLLFTFLIAQAFLSMLCHLKFAIFIFFSAWVLVMSVFVLFFLPETKNVPIEEMTDKVWKQHWFWKRFMDDDDHHHNIANGKNATV |  | 73 µM | capable of transporting glucose at a higher rate than yeast cells expressing the Lr67 resistant allele or empty vector |
| Lr67(res): Wheat Lr67 (resistant) protein, 514 amino acids, arginine at position 144 and leucine at position 387 (protein, listed as Triticum aestivum) MPGGGFAVSAPSGVEFEAKITPIVIISCIMAATGGLMFGYDVGISGGVTSMDDFLREFFPAVLRRKNQDKESNYCKYDNQGLQLFTSSLYLAGLTATFFASYTTRRLGRRLTMLIAGVFFIIGVIFNGAAQNLAMLIIGRILLRCGVGFANQAVPLFLSEIAPTRIRGGLNILFQLNVTIGILFANLVNYGTSKIHPWGWRLSLSLAGIPAAMLTLGALFVTDTPNSLIERGHLEEGKAVLKRIRGTDNVEPEFNEIVEASRIAQEVKHPFRNLLQRRNRPQLVIAVLLQIFQQFTGINAIMFYAPVLFNTLGFKSDASLYSAVITGAVNVLATLVSVYAVDRAGRRALLLEAGVQMFLSQVVIAVVLGIKVTDKSDNLGHGWAILLVVMVCTYVASFAWSWGPLGWLIPSETFPLETRSAGQSVTVCVNLLFTFLIAQAFLSMLCHLKFAIFIFFSAWVLVMSVFVLFFLPETKNVPIEEMTDKVWKQHWFWKRFMDDDDHHHNIANGKNATV |  |  | did not show detectable glucose transport activity above the control |
